Experimental data: patent US20120219551A1 (MacroGenics, published 2012)

T1: CD32B-G2Ag (human, UniProt P31994 43-217)
T1 construct: extracellular domain; Soluble dimeric protein as told for Section 7.7; also called FcγRIIB-Fc fusion protein; 2bFcagl; not shown: human IgG2 hinge-CH2-CH3 domain
T1 sequence (looked up): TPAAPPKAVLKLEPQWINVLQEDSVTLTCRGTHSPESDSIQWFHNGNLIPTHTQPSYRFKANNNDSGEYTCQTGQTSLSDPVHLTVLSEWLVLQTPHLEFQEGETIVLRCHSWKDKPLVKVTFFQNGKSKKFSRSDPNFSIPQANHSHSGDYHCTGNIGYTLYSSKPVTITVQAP

T2: CD32A-G2Ag (human, UniProt P12318 34-217)
T2 construct: extracellular domain; Soluble dimeric protein as told for Section 7.7 (there 131H); also called FcγRIIA-Fc fusion protein; 2aFcagl; not shown: human IgG2 hinge-CH2-CH3 domain
T2 sequence (looked up): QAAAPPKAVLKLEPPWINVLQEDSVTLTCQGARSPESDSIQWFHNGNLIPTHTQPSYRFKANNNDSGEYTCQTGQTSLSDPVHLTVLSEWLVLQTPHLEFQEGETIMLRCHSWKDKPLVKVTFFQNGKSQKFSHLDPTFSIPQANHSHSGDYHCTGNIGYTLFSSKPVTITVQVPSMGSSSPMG

T3: CD32B (human, UniProt P31994 43-217)
T3 construct: extracellular domain; Soluble dimeric fusion as told for the ch4D5 BIAcore assays of section 7.7; also called FcγRIIB; FcγRII-B; not shown: hinge-CH2-CH3 domain of human IgG2
T3 sequence (looked up): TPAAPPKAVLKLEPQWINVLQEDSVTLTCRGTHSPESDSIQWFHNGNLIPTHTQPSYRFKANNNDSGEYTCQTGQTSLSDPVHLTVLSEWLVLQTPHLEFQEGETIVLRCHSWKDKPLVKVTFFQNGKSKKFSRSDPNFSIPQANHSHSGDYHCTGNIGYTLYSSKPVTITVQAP

T4: CD32A (131H) (human, UniProt P12318 34-217)
T4 construct: extracellular domain; Soluble dimeric fusion as told for the ch4D5 BIAcore assays of section 7.7; also called FcγRIIA 131H; not shown: hinge-CH2-CH3 domain of human IgG2
T4 sequence (looked up): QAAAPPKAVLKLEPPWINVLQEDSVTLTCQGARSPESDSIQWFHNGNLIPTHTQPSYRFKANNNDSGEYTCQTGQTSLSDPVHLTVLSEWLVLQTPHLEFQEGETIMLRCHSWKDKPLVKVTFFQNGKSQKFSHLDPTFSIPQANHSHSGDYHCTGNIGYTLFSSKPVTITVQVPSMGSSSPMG

T5: CD32A (131R) (human, UniProt P12318 34-217)
T5 construct: extracellular domain; Soluble dimeric fusion as told for FcγRIIA in section 7.7 (there for 131H); also called FcγRIIA 131R; not shown: hinge-CH2-CH3 domain of human IgG2
T5 sequence (looked up): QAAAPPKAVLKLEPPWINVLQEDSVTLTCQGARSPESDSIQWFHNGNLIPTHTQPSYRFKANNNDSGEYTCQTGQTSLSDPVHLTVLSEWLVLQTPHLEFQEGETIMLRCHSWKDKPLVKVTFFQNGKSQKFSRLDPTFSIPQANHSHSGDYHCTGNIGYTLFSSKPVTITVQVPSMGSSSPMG


Columns and labels:
CD16A(V158) = biological target: T6, CD16A(V158) (human, UniProt P08637 17-208); experiment: relative off-rate wt/variant; method not given (BIAcore elsewhere)
T6 construct: extracellular domain; Construct as told for the BIAcore assays of Section 7.7; also called FcγRIIIA 158V; 3aV158

CD16A(F158) = biological target: T7, CD16A(F158) (human, UniProt P08637 17-208); experiment: as above
T7 construct: extracellular domain; Construct as told for the BIAcore assays of Section 7.7; also called 3aF158

CD32B-G2Ag = biological target: T1, CD32B-G2Ag; experiment: as above
CD32A-G2Ag = biological target: T2, CD32A-G2Ag; experiment: as above
CD16A (158F) = biological target: T8, CD16A (158F) (human, UniProt P08637 17-208); experiment: off-rate ratio vs wild-type Fc (BIAcore per the filing's koff tables)
T8 construct: extracellular domain; Soluble monomeric construct as told for the ch4D5 BIAcore assays of section 7.7

CD32B = biological target: T3, CD32B; experiment: as above
CD32A (131H) = biological target: T4, CD32A (131H); experiment: as above
CD32A (131R) = biological target: T5, CD32A (131R); experiment: as above
CD16A (158V) = biological target: T9, CD16A (158V) (human, UniProt P08637 17-208); experiment: as above
T9 construct: extracellular domain; Soluble monomeric construct as told for the ch4D5 BIAcore assays of section 7.7; also called FcγRIIIA 158V; FcγRIIIA V158
T9 sequence (P08637 17-208 F176V): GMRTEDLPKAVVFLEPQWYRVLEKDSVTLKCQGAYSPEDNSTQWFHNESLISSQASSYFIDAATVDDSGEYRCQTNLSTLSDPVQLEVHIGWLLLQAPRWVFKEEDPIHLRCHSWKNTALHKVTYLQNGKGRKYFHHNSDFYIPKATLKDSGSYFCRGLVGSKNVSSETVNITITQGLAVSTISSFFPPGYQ

T8 sequence (P08637 17-208): as the sequence (P08637 17-208 F176V) above, with V160F counted along it
T6 sequence (P08637 17-208 F176V): as the sequence (P08637 17-208 F176V) above
T7 sequence (P08637 17-208): as the sequence (P08637 17-208 F176V) above, with V160F counted along it

Row | Koff ratio (wt/mut) (CD16A(V158)) | Koff ratio (wt/mut) (CD16A(F158)) | Koff ratio (wt/mut) (CD32B-G2Ag) | Koff ratio (wt/mut) (CD32A-G2Ag) | Wild-Type Koff/Mutant Koff (CD16A (158F)) | Wild-Type Koff/Mutant Koff (CD32B) | Wild-Type Koff/Mutant Koff (CD32A (131H)) | Wild-Type Koff/Mutant Koff (CD32A (131R)) | Wild-Type Koff/Mutant Koff (CD16A (158V)) | Binder
1 | 5.3 | 4.5 | 0.5 | 1.3 | – | – | – | – | – | ch4D5 Fc Variants 19 and 20 (L235V, F243L, R292P, Y300L, P396L) (antibody, copies: 2 + 2) heavy: QVQLQQSGPELVKPGASLKLSCTASGFNIKDTYIHWVKQRPEQGLEWIGRIYPTNGYTRYDPKFQDKATITADTSSNTAYLQVSRLTSEDTAVYYCSRWGGDGFYAMDYWGQGASVTVSSASTKGPSVFPLAPSSKSTSGGTAALGCLVKDYFPEPVTVSWNSGALTSGVHTFPAVLQSSGLYSLSSVVTVPSSSLGTQTYICNVNHKPSNTKVDKRVEPKSCDKTHTCPPCPAPELVGGPSVFLLPPKPKDTLMISRTPEVTCVVVDVSHEDPEVKFNWYVDGVEVHNAKTKPPEEQYNSTLRVVSVLTVLHQDWLNGKEYKCKVSNKALPAPIEKTISKAKGQPREPQVYTLPPSRDELTKNQVSLTCLVKGFYPSDIAVEWESNGQPENNYKTTPLVLDSDGSFFLYSKLTVDKSRWQQGNVFSCSVMHEALHNHYTQKSLSLSPGK light: DIVMTQSHKFMSTSVGDRVSITCKASQDVNTAVAWYQQKPGHSPKLLIYSASFRYTGVPDRFTGSRSGTDFTFTISSVQAEDLAVYYCQQHYTTPPTFGGGTKVEIKRTVAAPSVFIFPPSDEQLKSGTASVVCLLNNFYPREAKVQWKVDNALQSGNSQESVTEQDSKDSTYSLSSTLTLSKADYEKHKVYACEVTHQGLSSPVTKSFNRGEC
2 | – | – | – | – | 2.5 | 0.2 | 0.7 | 0.2 | – | ch4D5 Fc variant L235P, F243L, R292P, Y300L, P396L (antibody, One of the series of variants of ch4D5-FcMT2) heavy: QVQLQQSGPELVKPGASLKLSCTASGFNIKDTYIHWVKQRPEQGLEWIGRIYPTNGYTRYDPKFQDKATITADTSSNTAYLQVSRLTSEDTAVYYCSRWGGDGFYAMDYWGQGASVTVSSASTKGPSVFPLAPSSKSTSGGTAALGCLVKDYFPEPVTVSWNSGALTSGVHTFPAVLQSSGLYSLSSVVTVPSSSLGTQTYICNVNHKPSNTKVDKRVEPKSCDKTHTCPPCPAPELPGGPSVFLLPPKPKDTLMISRTPEVTCVVVDVSHEDPEVKFNWYVDGVEVHNAKTKPPEEQYNSTLRVVSVLTVLHQDWLNGKEYKCKVSNKALPAPIEKTISKAKGQPREPQVYTLPPSRDELTKNQVSLTCLVKGFYPSDIAVEWESNGQPENNYKTTPLVLDSDGSFFLYSKLTVDKSRWQQGNVFSCSVMHEALHNHYTQKSLSLSPGK light: DIVMTQSHKFMSTSVGDRVSITCKASQDVNTAVAWYQQKPGHSPKLLIYSASFRYTGVPDRFTGSRSGTDFTFTISSVQAEDLAVYYCQQHYTTPPTFGGGTKVEIKRTVAAPSVFIFPPSDEQLKSGTASVVCLLNNFYPREAKVQWKVDNALQSGNSQESVTEQDSKDSTYSLSSTLTLSKADYEKHKVYACEVTHQGLSSPVTKSFNRGEC
3 | – | – | – | – | 2.8 | 0.3 | 0.9 | 0.3 | 4.2 | ch4D5 Fc variant L235T, F243L, R292P, Y300L, P396L (antibody, One of the series of variants of ch4D5-FcMT2) heavy: QVQLQQSGPELVKPGASLKLSCTASGFNIKDTYIHWVKQRPEQGLEWIGRIYPTNGYTRYDPKFQDKATITADTSSNTAYLQVSRLTSEDTAVYYCSRWGGDGFYAMDYWGQGASVTVSSASTKGPSVFPLAPSSKSTSGGTAALGCLVKDYFPEPVTVSWNSGALTSGVHTFPAVLQSSGLYSLSSVVTVPSSSLGTQTYICNVNHKPSNTKVDKRVEPKSCDKTHTCPPCPAPELTGGPSVFLLPPKPKDTLMISRTPEVTCVVVDVSHEDPEVKFNWYVDGVEVHNAKTKPPEEQYNSTLRVVSVLTVLHQDWLNGKEYKCKVSNKALPAPIEKTISKAKGQPREPQVYTLPPSRDELTKNQVSLTCLVKGFYPSDIAVEWESNGQPENNYKTTPLVLDSDGSFFLYSKLTVDKSRWQQGNVFSCSVMHEALHNHYTQKSLSLSPGK light: DIVMTQSHKFMSTSVGDRVSITCKASQDVNTAVAWYQQKPGHSPKLLIYSASFRYTGVPDRFTGSRSGTDFTFTISSVQAEDLAVYYCQQHYTTPPTFGGGTKVEIKRTVAAPSVFIFPPSDEQLKSGTASVVCLLNNFYPREAKVQWKVDNALQSGNSQESVTEQDSKDSTYSLSSTLTLSKADYEKHKVYACEVTHQGLSSPVTKSFNRGEC
